Reference: paper PMC2726290 (2008)
Substitutions are numbered along the chain they refer to. No end group written: not given here.

Key:
[1] = target: T1, hPHD-HD1 complex (hPygo1 PHD 333-402 with hBCL9 HD1) (human, UniProt Q9Y3Y4 333-402; O00512 177-205); test: ITC
T1 chain 1: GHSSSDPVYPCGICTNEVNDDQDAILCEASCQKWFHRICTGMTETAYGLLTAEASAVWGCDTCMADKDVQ
T1 chain 2: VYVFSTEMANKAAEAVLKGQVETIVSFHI

hPygo1 PHD finger V350E = target: T2, hPygo1 PHD finger V350E (human, UniProt Q9Y3Y4 333-402, V350E); test: ITC
T2 sequence: T1 chain 1 with V18E

[2] = target: hPygo1 PHD finger mutated at N351 (human, UniProt Q9Y3Y4 333-402); test: ITC; N351A
[3] = target: hPygo1 PHD finger mutated at Q354 (human, UniProt Q9Y3Y4 333-402); test: ITC; Q354A

Binder	Kd [1]	Kd (hPygo1 PHD finger V350E)	Kd [2]	Kd [3]
ARTK(Me)QTARKSTGGKA [H3K4me1 15-mer histone H3 tail peptide]	2.2 µM			
ARTKQTARKSTGGKA (trimethyl-lysine at K4) [H3K4me3 15-mer histone H3 tail peptide]		98 µM	7.1 µM	13.8 µM
GRTKQTARK (dimethyl-lysine at K4) [H3K4me2 9-mer whose A1 was substituted with a glycine]	99.8 µM			
